Experimental data from the supplement of paper PMC12455559.

Assay: purified protein yield per well (BCA); higher = higher soluble expression
Procedure, shortened: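 Candidate enzymes were expressed in E. coli C41(DE3) in 2 mL autoinduction cultures with 100 µg/mL kanamycin, at 37 °C for 2 h and then 18 °C for 40 h. Cells were lysed, and protein was bound to Ni-charged magnetic beads and released by SUMO protease cleavage on an OT-2 robot. The read-out is purified protein yield per well, measured with the Pierce Rapid Gold BCA kit. Values below 25 ug (0.1 mg/mL) are below the detection threshold.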

Row | Sequence | purified protein yield per well
1 | QNPFERGPAPTTASLEASRGPFATSSFTVSRPSGYGAGTVYYPTNAGGTVGAIAIVPGYTARQSSINWWGPRLASHGFVVITIDTNSTLDQPSSRSRQQLAALDQVATLARTSSSPIYNKVDTTRMGVMGWSMGGGGSLISAENRPSLKAAAPQAPWNSSTNFSSVTVPTLIFACENDSIAATGSHASPMYNSMSRNPKQYLEINGGSHSCANSGNSNQALIGKKGVAWMKRYMDNDTRYTSFACANPNSTRVSDFRVARCS [ESM086] | < 25 µg
2 | ADNPYQRGPNPTLSSVRAGSGPYATTSTTVARSAVSGFGGGTVYYPTSTSDGTFGAVAMCPGYTATKESLAWFGPRVASHGFVVFIIDTVTTSDQPAQRGDELLAALDHLTRTSSVRSRIDASRLAVAGHSMGGGGTLEAAKDRPGLRAAVPLAPWNTTKNWSGNRVPTLIIGGQSDTIAAVSSHAVPFYTSLPTTPDKAYLE [DP074] | < 25 µg
3 | AENPYQRGPDPTPASVSANRGSFATTQVSVPSGNGFGGGIIYYPTDTSQGKFGAIAIVPGYTATWAAEGAWMGHWLASFGFVVIGIDTNNRNDWDNARGQQLLAALDYLTQRSSVRDRVDATRAAVMGHSMGGGGAAYASLQRPTLKTSVGLAPASFSQNLTTTRVPTMLLSGQNDGTVTPSSVLNLYNGIPAGVEKAYLELTGAGHGFPTSNNPTMMRVVIPWFKVFIDSDTRYTQFLCPLSNGNGIRSYQSTCPLVPSTPPTSTTTSTTTTTTTTTTTTTTTTSTSTTTTTPQPGGACSAVFRTTNSWPGGYQAEVTVTAGDSGVSGWTTHWTLGSGESVSQVWNGALTVSGSSVSVRNVSYNGSLAPNRSTTFGFIGGGAPPTSPFTCTSP [ESM029] | < 25 µg
4 | VENGPAPTFSSVQAEGPFAVSTQTVRGSGFGGGTVYSPNTAGKYAVVAVCPGFTATQSSIALISRRLATHGFVVVTISTNSVYDYPASRANQLLAALRTVTALTTGPVAGKMDISRQGVAGWSMGGGGAMLAAGMTPGLKAGVAFAPWSLTNNVGSSSVPMAYLAGTADTVAPASSHSTVFYNAMPATTNKLIGVIQGANHYFPGTASQPASYTQVAWMKRFLDGDTRYSQFLNGDSRFATFRSTGPF [ESM102] | < 25 µg
5 | ADNPHERGPDPTESSIEALRGSYAVSERSVSRWVSGFGGGTIYYPTTTSDGDFGAVVISPGYTGTESTVAWLGPRLASQGFVVLTMATNSIYDQPDSRARQLQAALDYLTASSPVADRIDADRLALMGHSMGGGGTLRAVDDNPDIKAAIPMTPWHPQKDWSSVSTPTLIFAAENDSVARHETHAEPFYESFEQDLPKAYLELDGASHFAPNTSNTTIAKYSISWLKRFVDDDTRYTPFLCPGPSTGWLSDVEKYESSCPF [DP076] | < 25 µg
6 | CSEEPHKAGGPWAGPYEVVTQQVSADDADGGFGDGTVRYPDDGSRDYGVIAASPGLGADESTVAPYGELLASHGFVVITIDTKTPEDSPAQRGRQLLRALDYATERSDAADRADPRRLGVLGHSMGGGGALYAAARNPHIRAAVPLTPYATRRDWHRVEAPTLVVGGSDDEVAPVSEYADAFYEGLSGAREKAYLELKGDHFVATPPDGLVSRQVVAWFGHFLAGAPGSPCPLPSGDGVTESRDTCPFGTRGR [TEP179] | 25.7 µg
7 | APPVAGPYQRGPAPTEEVLVAARGPFAVTQTRMAAGQGTGAGTVHHPTDASQGTFGAVAVMPGFMGTEKSIRLYGPLLASHGFVVLTLSSVRRADFPDQRADQLLAALDRLVAGPAKGLIDAERLAVVGHSMGGGATLRAAARRPGLKAAVPLAPWHVRRDWRSVRVPTLIFGSENDRVAPVDKHAEPFYASLTRAPEKAYVELRDGGHLSFNTANPVIAKYTVSWLKRYVDDDVRYDPFLCPGPAFPSPTIREYRGTCPS [DP060] | < 25 µg
8 | FGAVAISPGFTAAWSSLSWLGPRLASHGFVVIGIETNSRLDQPASRGDQLLAALDWAVNQSPAASRIDRNRLAVAGHSMGGGGTLEAAKDRPSLKAAIPIAPWNLDKTWPEIRTPTLILGGENDLIAPVASHAEPFYNSIPASAEKAYLELDNESHFFPQFSNTIMAKYMISWLKRFVDNDTRYDQFLCP [TEP090] | < 25 µg
9 | CTWRGPNPPPATLDAPMGPFTTTSSVVTTSPGFGDGTMYYPDTEPGPFGVVAVAPGWLASQNSLDTLGNRIASHGFVVITIDVNRPRSDGPQSRADQLLAALDQVANEAAVAGIADNTRQAVMGHSMGGGGALYASIDRPALKASIPLAPWARGADFSAVTVPTMIIGCEDDTVAPVGSHAIAFYDAIANTVPKAYAEIADASHSCVNDFNTDPLETAEVASSAVSFLKRFVDNDSRYTPFLCPIPELDPPLSDRRATCPYN [TEP148] | < 25 µg
10 | AAPHASTAHHHAPFAVRTTVVPRTADAKFGGGVIYEPQDTGKPVLGAVVITPGFTDTNADEKEMAELVASQGFVAFAIDTLDVGDLPDQRATEILAAADYLTGQSAVKSQVSAKDLAFLGYSMGGGGTFQAAQARPSVKAAIGLMPFDIPDANDPNATTPSYPKLTTPSLVVTGQKDDVADPEYFGKPIYDSIPVGTPKQYLELTGLGHGAGEHVPAPTIRVAVTAFLKRYLDGNSAYAKYICPAPKVGGPVSASLSSCPQG [ESM176] | < 25 µg
11 | DGYERGPDPTPTRLLGNGSFSVSTTSVSSLVLGFGGGTIYYPTSTSEGTFGGVVLSPGFTATSGSYAGVARRVASHGFVVLVIDTNTIYDQPDSRGRQILDAVDYLTEDAPSAVASRLDESRIAVSGHSMGGGGTLYAADNRTSVIKTAVALQPWHTDKTWPGVDIPTMIIGAENDAIAPVSSHSIPFYASLSGAPEKAYGEVNNAGHLIANTNDDWQGRLFVSWLKRYLDEDLRYEAFLCPAPSSISLSDYRDTCPG [DP030] | < 25 µg
12 | GFGGGMIYYPTDTSQGTFGGIAISPGYTAQFSVELSWMGPWLASHGFVVIGIETNSPTDFDQARGTQLLAALDYLTQQSPVRTRVDASRLAVAGHSMGGGGALNAAIRRPSLKATVGITPFLPSSNLANDHVPTMLIAGQADTVVSTSSVINQYNSLPATTKSVFLEVAGGDHGFMVGRPNTVMVRTMLPFLKIFVDNDSRYSKFLCPLMDSSGITQYRST [ESM170] | < 25 µg
13 | MHPSFPESEDPAPAARHSAAPLSRDCAHPPARRSTHRTAHRIAHRTARPDRSRRRIRGVLAAATAALLAVAGLTLIPNASAAENPFERGPAPSASSLAAARGPFATSQVTVSSRDASGFGGGTIYFPTSGDEGTFGAVAVAPGFTASRSSMAWLGPRLASQGFIVFNIDTITRSDQPASRGRQLLAALDFLVERSPIRDRVDPDRLAVMGHSMGGGGALEAAESRPTLRAAIPLTPWNLNKNWSRVQVPTMVIGAERDTIASVRFHSEPFFDSLPSDLDKAYLELNNASHFAPNIPNATISSFSVAWLKRFVDDDTRYEQFLCPPPRPAGEISEYQDTCARAS [TEP191] | < 25 µg
14 | QNPYERGPAPSTASLEASRGPFATSSFTVSRPSGYGAGTVYYPTNAGGTVGAIAIVPGYTARQSSINWWGPRLASHGFVVITIDTNSTSDQPASRSRQQLAALDQVATLNSTSSSPIYNKVDTSRMGVMGWSMGGGGSLISAQNRSSLKAAAPQAPWNSSTNFSSVTVPTLIFACESDAIARVGSHASPMYNSMTRNPKQFMEIEGGSHSCANSGNSNQALIGKKGVAWMKRFMDNDTRYTSFACSNPNSTRVSDFRVARCS [ESM114] | < 25 µg
15 | MTVPPGNGFNGGKIYYPTDTSLGTWAAVAAVPGYTARWDAEGAWMGPWLASFGFVVIGIDTNSPTDYDTARGTQLLAALDYLTQKSPVRDRVDPNRLGVLGHSMGGGGAISAAERRPSLKAALPLAPFSPSQNLSSLRVPTMIMGARDDGTVTPSYLNGLYGSMPTATQSAYIELTSGGHGFPTWGNSNVTRRTIPWLKIFLDNDTRYTQFLCPSLADSSGISRSQTKCPYVPPGGTTTPPSGGQIVGAGSGRCLDVPNASQTNGAQVQLWDCSGNVNQKWARTDAGELRVYGSKCLDAEGSGTSPGTRVIVWDCHGGQNQRWNVNTNGTITSVGSGLCLDTNGGGTGNGAQTVLGNCNGAPTQRWTVR [ESM105] | < 25 µg
16 | QTPTRESLSRQGPYQVAYYSSLPDVPEYAGATLYFPANKGDSFGGVAIAPGFIETQENIAWWGEYLASYGFAVLTLDTNSPRDIPALRADALMAAVEIIRGENTRMGSPLRGKIDVTRMAIMGHSMGGGGTLLAANAHSDQLKAAIPFTPWLPDADFSAVAVPTLVIAGEIDRIAAAAGHAWPHFQTLPDNIPKMYLEIKGGNHFIANSVTDNEGLAPNIDVHDLVGSMS [TEP027] | < 25 µg
17 | FTPSPDPTPDPEPTPEPCQGDCDFTRGPDPSISYLEADNGPYTVRTIDVPSSAGSFNGGTIHYPSGTSGTMGAIAVASGFLAPEGDIIWWGPRLASHGFVVITISTPTFDGEDRRATQLSEALDYVIAQSNSNGSDISGMVDGSRLGAMGWSMGGGGTLQLASGTRLSAAIPLAPWNSGSNNFDQIETPTLIIACENDGTAAVGTHASPFYHSIPASTDKAFLEINGGGHSCANGGGTNGGLLGKYGVSWMKLFMDDDSRYSQFLCGPNHAANSAISEYRDTCNY [DP049] | < 25 µg
18 | CVFPPAPPPPGSGYTITTVAAGNGFGGGTIYLPEGVTGRRGAVAVVPGFTGTQSTVAWYGPLLAKEGYVVFTIDTNSGWDSPQARGTQLLAALDYLTTQSSAASRVDPARLAVMGHSMGGGGSLEAAKARPSLKAAIPLAGWNSVTNFSTVTVPTLVVA [TEP070] | < 25 µg
19 | AVQNGPAPTSTSVNAAGTYATASSAVAASASLGFGGGTIYYPTAAGTYGVIALCPGFTATQTSVAWLAQRLATHGFVTLAMNTNNPLLDSPSSRGIQLRAAIAYLTGSSAPAAVKAHVDATRRAVYGHSMGGGGVLYALTSDKTLKAGFPMAPYNTATTSFPTITSATMILTGTGDTTAPPSTYGLPMYNSLPVTTQKAYALLTGAGHS [TEP161] | < 25 µg
20 | DGEYRVLTYTDFPDAPEFGDGTIYYPVGTPGPIGGVAIVPGFTEEQRAVAWLGPRLASHGYAVLIFDTNDRRDPAQVRADELMGAVRVLRAENSRRGSPLFGRIDASKMAIMGHSMGGGGALLAADAHSDQVSAVITFAPYEPTASFSEITVPTLIFGGSADPIAPVADHAWRHFNSIPAST [TEP123] | < 25 µg
21 | QDNPYERGPDPTESLIEASRGPFSVSQTSVSSLVSGFGGGTIYYPTSTSEGTFGAVAISPGFTATESSIAWMGPRLASHGFVVITIDTNTIYDQPSSRGDQLLAALDYMTEDNLTVRGRIDSSRLAVAGHSMGGGGSLEAASSRPALQAAVPLAPWNTDKSWSELRTPTLIIGGESDSIAPVATHSIPFYNSIPASAEKAYLELDNASHFFPQTPNTTQAKYMLSWLKRFVDNDTRYEQFLCPAPDDRDISDYRDTCPHA [TEP150] | < 25 µg
